Source: the PETadex activity labels (doi:10.1016/s0021-9258(17)37371-4)

B1: unnamed (protein)
chain: MRPPQCLLHTPSLASPLLLLLLWLLGGGVGAEGREDAELLVTVRGGRLRGIRLKTPGGPVSAFLGIPFAEPPMGPRRFLPPEPKQPWSGVVDATTFQSVCYQYVDTLYPGFEGTEMWNPNRELSEDCLYLNVWTPYPRPTSPTPVLVWIYGGGFASGASSLDVYDGRFLVQAERTVLVSMNYRVGAFGFLALPGSREAPGNVGLLDQRLALQWVQENVAAFGGDPTSVTLFGESAGAASVGMHLLSPPSRGLFHRAVLQSGAPNGPWATVGMGEARRRATQLAHLVGCPPGGTGGNDTELVACLRTRPAQVLVNHEWHVLPQESVFRFSFVPVVDGDFLSDTPEALINAGDFHGLQVLVGVVKDEGSYFLVYGAPGFSKDNESLISRAEFLAGVRVGVPQVSDLAAEAVVLHYTDWLHPEDPARLREALSDVVGDHNVVCPVAQLAGRLAAQGARVYAYVFEHRASTLSWPLWMGVPHGYEIEFIFGIPLDPSRNYTAEEKIFAQRLMRYWANFARTGDPNEPRDPKAPQWPPYTAGAQQYVSLDLRPLEVRRGLRAQACAFWNRFLPKLLSATDTLDEAERQWKAEFHRWSSYMVHWKNQFDHYSKQDRCSDL
B2: unnamed (protein)
chain: MRPPQCLLHTPSLASPLLLLLLWLLGGGVGAEGREDAELLVTVRGGRLRGIRLKTPGGPVSAFLGIPFAEPPMGPRRFLPPEPKQPWSGVVDATTFQSVCYQYVDTLYPGFEGTEMWNPNRELSEDCLYLNVWTPYPRPTSPTPVLVWIYGGGFYSGASSLDVYDGRFLVQAERTVLVSMNYRVGAFGFLALPGSREAPGNVGLLDQRLALQWVQENVAAFGGDPTSVTLFGESAGAASVGMHLLSPPSRGLFHRAVLQSGAPNGPWATVGMGEARRRATQLAHLVGCPPGGTGGNDTELVACLRTRPAQVLVNHEAHVLPQESVFRFSFVPVVDGDFLSDTPEALINAGDFHGLQVLVGVVKDEGSYFLVYGAPGFSKDNESLISRAEFLAGVRVGVPQVSDLAAEAVVLHYTDWLHPEDPARLREALSDVVGDHNVVCPVAQLAGRLAAQGARVYAYVFEHRASTLSWPLWMGVPHGYEIEFIFGIPLDPSRNYTAEEKIFAQRLMRYWANFARTGDPNEPRDPKAPQWPPYTAGAQQYVSLDLRPLEVRRGLRAQACAFWNRFLPKLLSATDTLDEAERQWKAEFHRWSSYMVHWKNQFDHYSKQDRCSDL
B3: unnamed (protein)
chain: MRPPQCLLHTPSLASPLLLLLLWLLGGGVGAEGREDAELLVTVRGGRLRGIRLKTPGGPVSAFLGIPFAEPPMGPRRFLPPEPKQPWSGVVDATTFQSVCYQYVDTLYPGFEGTEMWNPNRELSEDCLYLNVWTPYPRPTSPTPVLVWIYGGGFASGASSLDVYDGRFLVQAERTVLVSMNYRVGAFGFLALPGSREAPGNVGLLDQRLALQWVQENVAAFGGDPTSVTLFGESAGAASVGMHLLSPPSRGLFHRAVLQSGAPNGPWATVGMGEARRRATQLAHLVGCPPGGTGGNDTELVACLRTRPAQVLVNHAAHVLPQESVFRFSFVPVVDGDFLSDTPEALINAGDFHGLQVLVGVVKDEGSYFLVYGAPGFSKDNESLISRAEFLAGVRVGVPQVSDLAAEAVVLHYTDWLHPEDPARLREALSDVVGDHNVVCPVAQLAGRLAAQGARVYAYVFEHRASTLSWPLWMGVPHGYEIEFIFGIPLDPSRNYTAEEKIFAQRLMRYWANFARTGDPNEPRDPKAPQWPPYTAGAQQYVSLDLRPLEVRRGLRAQACAFWNRFLPKLLSATDTLDEAERQWKAEFHRWSSYMVHWKNQFDHYSKQDRCSDL
B4: unnamed (protein)
chain: MRPPQCLLHTPSLASPLLLLLLWLLGGGVGAEGREDAELLVTVRGGRLRGIRLKTPGGPVSAFLGIPFAEPPMGPRRFLPPEPKQPWSGVVDATTFQSVCYQYVDTLYPGFEGTEMWNPNRELSEDCLYLNVWTPYPRPTSPTPVLVWIYGGGFYSGASSLDVYDGRFLVQAERTVLVSMNYRVGAFGFLALPGSREAPGNVGLLDQRLALQWVQENVAAFGGDPTSVTLFGESAGAASVGMHLLSPPSRGLFHRAVLQSGAPNGPWATVGMGEARRRATQLAHLVGCPPGGTGGNDTELVACLRTRPAQVLVNHEWHVLPQESVFRFSFVPVVDGDFLSDTPEALINAGDFHGLQVLVGVVKDEGSYALVYGAPGFSKDNESLISRAEFLAGVRVGVPQVSDLAAEAVVLHYTDWLHPEDPARLREALSDVVGDHNVVCPVAQLAGRLAAQGARVYAYVFEHRASTLSWPLWMGVPHGYEIEFIFGIPLDPSRNYTAEEKIFAQRLMRYWANFARTGDPNEPRDPKAPQWPPYTAGAQQYVSLDLRPLEVRRGLRAQACAFWNRFLPKLLSATDTLDEAERQWKAEFHRWSSYMVHWKNQFDHYSKQDRCSDL
B5: unnamed (protein)
chain: MRPPQCLLHTPSLASPLLLLLLWLLGGGVGAEGREDAELLVTVRGGRLRGIRLKTPGGPVSAFLGIPFAEPPMGPRRFLPPEPKQPWSGVVDATTFQSVCYQYVDTLYPGFEGTEMWNPNRELSEDCLYLNVWTPYPRPTSPTPVLVWIYGGGFYSGASSLDVYDGRFLVQAERTVLVSMNYRVGAFGFLALPGSREAPGNVGLLDQRLALQWVQENVAAFGGDPTSVTLFGESAGAASVGMHLLSPPSRGLFHRAVLQSGAPNGPWATVGMGEARRRATQLAHLVGCPPGGTGGNDTELVACLRTRPAQVLVNHEWHVLPQESVFRFSFVPVVDGDFLSDTPEALINAGDFHGLQVLVGVVKDEGSFFLVYGAPGFSKDNESLISRAEFLAGVRVGVPQVSDLAAEAVVLHYTDWLHPEDPARLREALSDVVGDHNVVCPVAQLAGRLAAQGARVYAYVFEHRASTLSWPLWMGVPHGYEIEFIFGIPLDPSRNYTAEEKIFAQRLMRYWANFARTGDPNEPRDPKAPQWPPYTAGAQQYVSLDLRPLEVRRGLRAQACAFWNRFLPKLLSATDTLDEAERQWKAEFHRWSSYMVHWKNQFDHYSKQDRCSDL
B6: unnamed (protein)
chain: MRPPQCLLHTPSLASPLLLLLLWLLGGGVGAEGREDAELLVTVRGGRLRGIRLKTPGGPVSAFLGIPFAEPPMGPRRFLPPEPKQPWSGVVDATTFQSVCYQAVDTLYPGFEGTEMWNPNRELSEDCLYLNVWTPYPRPTSPTPVLVWIYGGGFASGASSLDVYDGRFLVQAERTVLVSMNYRVGAFGFLALPGSREAPGNVGLLDQRLALQWVQENVAAFGGDPTSVTLFGESAGAASVGMHLLSPPSRGLFHRAVLQSGAPNGPWATVGMGEARRRATQLAHLVGCPPGGTGGNDTELVACLRTRPAQVLVNHEWHVLPQESVFRFSFVPVVDGDFLSDTPEALINAGDFHGLQVLVGVVKDEGSYFLVYGAPGFSKDNESLISRAEFLAGVRVGVPQVSDLAAEAVVLHYTDWLHPEDPARLREALSDVVGDHNVVCPVAQLAGRLAAQGARVYAYVFEHRASTLSWPLWMGVPHGYEIEFIFGIPLDPSRNYTAEEKIFAQRLMRYWANFARTGDPNEPRDPKAPQWPPYTAGAQQYVSLDLRPLEVRRGLRAQACAFWNRFLPKLLSATDTLDEAERQWKAEFHRWSSYMVHWKNQFDHYSKQDRCSDL
B7: unnamed (protein)
chain: MRPPQCLLHTPSLASPLLLLLLWLLGGGVGAEGREDAELLVTVRGGRLRGIRLKTPGGPVSAFLGIPFAEPPMGPRRFLPPEPKQPWSGVVDATTFQSVCYQYVDTLYPGFEGTEMWNPNRELSEDCLYLNVWTPYPRPTSPTPVLVWIYGGGFYSGASSLDVYDGRFLVQAERTVLVSMNYRVGAFGFLALPGSREAPGNVGLLDQRLALQWVQENVAAFGGDPTSVTLFGESAGAASVGMHLLSPPSRGLFHRAVLQSGAPNGPWATVGMGEARRRATQLAHLVGCPPGGTGGNDTELVACLRTRPAQVLVNHEWHVLPQESVFRFSFVPVVDGDFLSDTPEALINAGDFHGLQVLVGVVKDEGSYFLVYGAPGFSKDNESLISRAEFLAGVRVGVPQVSDLAAEAVVLHYTDWLHPEDPARLREALSDVVGDHNVVCPVAQLAGRLAAQGARVYAYVFEHRASTLSWPLWMGVPHGYEIEFIFGIPLDPSRNYTAEEKIFAQRLMRYWANFARTGDPNEPRDPKAPQWPPYTAGAQQYVSLDLRPLEVRRGLRAQACAFWNRFLPKLLSATDTLDEAERQWKAEFHRWSSYMVHWKNQFDHYSKQDRCSDL
B8: unnamed (protein)
chain: MRPPQCLLHTPSLASPLLLLLLWLLGGGVGAEGREDAELLVTVRGGRLRGIRLKTPGGPVSAFLGIPFAEPPMGPRRFLPPEPKQPWSGVVDATTFQSVCYQYVDTLYPGFEGTEMANPNRELSEDCLYLNVWTPYPRPTSPTPVLVWIYGGGFYSGASSLDVYDGRFLVQAERTVLVSMNYRVGAFGFLALPGSREAPGNVGLLDQRLALQWVQENVAAFGGDPTSVTLFGESAGAASVGMHLLSPPSRGLFHRAVLQSGAPNGPWATVGMGEARRRATQLAHLVGCPPGGTGGNDTELVACLRTRPAQVLVNHEWHVLPQESVFRFSFVPVVDGDFLSDTPEALINAGDFHGLQVLVGVVKDEGSYFLVYGAPGFSKDNESLISRAEFLAGVRVGVPQVSDLAAEAVVLHYTDWLHPEDPARLREALSDVVGDHNVVCPVAQLAGRLAAQGARVYAYVFEHRASTLSWPLWMGVPHGYEIEFIFGIPLDPSRNYTAEEKIFAQRLMRYWANFARTGDPNEPRDPKAPQWPPYTAGAQQYVSLDLRPLEVRRGLRAQACAFWNRFLPKLLSATDTLDEAERQWKAEFHRWSSYMVHWKNQFDHYSKQDRCSDL

Substrate: Acetylcholine
Settings: pH 8; 27 °C

**Q.** What does the source list for B1?
**A.** Km: 250 µM; kcat: 4170 s⁻¹; kcat/Km: 1.67e+07 M⁻¹ s⁻¹

**Q.** With B2 as the protein, how does the Km read?
**A.** The Km was 200 µM.

**Q.** What about the kcat of the same protein?
**A.** The kcat was 5330 s⁻¹.

**Q.** And the kcat/Km?
**A.** Its kcat/Km is 2.67e+07 M⁻¹ s⁻¹.

**Q.** What does the source list for B3?
**A.** Km: 280 µM; kcat: 2330 s⁻¹; kcat/Km: 8.33e+06 M⁻¹ s⁻¹

**Q.** For B4, which Km is on record?
**A.** Its Km is 140 µM.

**Q.** And the kcat?
**A.** Its kcat is 2830 s⁻¹.

**Q.** And the kcat/Km?
**A.** The kcat/Km was 2.02e+07 M⁻¹ s⁻¹.

**Q.** Which results are given for B5?
**A.** Km: 160 µM; kcat: 6670 s⁻¹; kcat/Km: 4.17e+07 M⁻¹ s⁻¹

**Q.** B6 was tested. Which Km did it give?
**A.** Its Km is 70 µM.

**Q.** And the kcat?
**A.** The kcat was 4170 s⁻¹.

**Q.** What about the kcat/Km of the same protein?
**A.** Its kcat/Km is 5.95e+07 M⁻¹ s⁻¹.

**Q.** What does the source list for B7?
**A.** Km: 120 µM; kcat: 7000 s⁻¹; kcat/Km: 5.83e+07 M⁻¹ s⁻¹

**Q.** B8 was tested. Which Km did it give?
**A.** The Km was 93000 µM.

**Q.** What about the kcat of the same protein?
**A.** The kcat was 1330 s⁻¹.

**Q.** And the kcat/Km?
**A.** Its kcat/Km is 14300 M⁻¹ s⁻¹.
